According to doi:10.1101/2022.07.20.500776v2:

Substrate: O=[N+]([O-])c1ccc(OP(=O)(O)O)cc1
Assay: purified protein
Details: pH 8.0, 100 mM Tris-HCl, 1 mM MgCl2, 10 °C, no added NaCl

B1: Vibrio alkaline phosphatase (VAP) (Vibrio sp. G15-21) (protein)
chain: AEIKNVILMIGDGMGPQQVGLLETYANQAPNSIYKGNKTAIYQLAQEGVIGSSLTHPEDAIVVDSACSATMLATGIYSSSEVIGIDSQGNHVETVLEKAKKAGKATGLVSDTRLTHATPASFAAHQPHRSLENQIASDMLATGADVMLSGGLRHWIPKSTNDKGETYKQLEKLTQGDVYLKSKRKDDRNLLTEAEKDGYQLAFNRNMLDDAKGDKLLGLFAYSGMDDGIAYSNKKKSGERTQPSLKEMTQKALNILSKDEDGFFLMVEGGQIDWAGHSNDAGTMLHELLKFDEAIQTVYEWAKDREDTIVIVTADHETGSFGFSYSSNDLPKPQKRSGEAFADRDYAPNFNFGAFDILDGLYNQKQSYYGMISEFQKLDKSLQTPEKLAEIVNKNSEFPITAEQAKNVLASKPNPYRLAQHKYLSAEEVPAINDFDAFFPYNDRGNLLAREQATGQNIVWGTGTHTHTPVNVFAWGPAEKILPVSKIMHHSELGEYIKQQVN
Protein B1 has a Km of 7.6 ± 1.8 µM and a kcat of 231 ± 15 s⁻¹.
